Reference: patent US20240360203A1

Experiments:
[1] = molecular target: SARS-CoV-2 BQ.1.1 spike protein (SARS-CoV-2); assay: cell-based or functional assay
[2] = molecular target: SARS-CoV-2 Delta (B.1.617.2) spike protein (SARS-CoV-2); assay: cell-based or functional assay
[3] = molecular target: SARS-CoV-2 XBB.1.5 spike protein (SARS-CoV-2); assay: cell-based or functional assay
[4] = molecular target: SARS-CoV-2 BA.2 spike protein (SARS-CoV-2); assay: cell-based or functional assay
[5] = molecular target: SARS-CoV-2 BQ.1.1 spike protein (SARS-CoV-2); assay: cell-based or functional assay; remark: listed apart in the source
[6] = molecular target: SARS-CoV-2 Delta (B.1.617.2) spike protein (SARS-CoV-2); assay: cell-based or functional assay; remark: listed apart in the source
[7] = molecular target: SARS-CoV-2 XBB.1.5 spike protein (SARS-CoV-2); assay: cell-based or functional assay; remark: listed apart in the source
[8] = molecular target: SARS-CoV-2 BQ.1.1 spike protein (SARS-CoV-2); assay: cell-based or functional assay; remark: listed apart in the source
[9] = molecular target: SARS-CoV-2 Delta (B.1.617.2) spike protein (SARS-CoV-2); assay: cell-based or functional assay; remark: listed apart in the source
[10] = molecular target: SARS-CoV-2 XBB.1.5 spike protein (SARS-CoV-2); assay: cell-based or functional assay; remark: listed apart in the source
[11] = molecular target: SARS-CoV-2 BQ.1.1 spike protein (SARS-CoV-2); assay: cell-based or functional assay; remark: listed apart in the source
[12] = molecular target: SARS-CoV-2 Delta (B.1.617.2) spike protein (SARS-CoV-2); assay: cell-based or functional assay; remark: listed apart in the source
[13] = molecular target: SARS-CoV-2 XBB.1.5 spike protein (SARS-CoV-2); assay: cell-based or functional assay; remark: listed apart in the source
[14] = molecular target: SARS-CoV-2 spike S2 peptide 1149-1167, biotinylated (SARS-CoV-2); assay: DELFIA on captured biotin-peptide; set-up: unit not given beside the values
[15] = molecular target: SARS-CoV-2 spike S2 peptide 1137-1151, biotinylated (SARS-CoV-2); assay: DELFIA on captured biotin-peptide; set-up: unit not given beside the values
[16] = molecular target: SARS-CoV-2 spike S2 peptide 1143-1162, biotinylated (SARS-CoV-2); assay: DELFIA on captured biotin-peptide; set-up: unit not given beside the values
[17] = molecular target: SARS-CoV-2 spike S2 peptide 1153-1167, biotinylated (SARS-CoV-2); assay: DELFIA on captured biotin-peptide; set-up: unit not given beside the values
[18] = molecular target: SARS-CoV-2 spike S2 peptide 1145-1159, biotinylated (SARS-CoV-2); assay: DELFIA on captured biotin-peptide; set-up: unit not given beside the values
[19] = molecular target: SARS-CoV-2 spike S2 peptide 1133-1147, biotinylated (SARS-CoV-2); assay: DELFIA on captured biotin-peptide; set-up: unit not given beside the values
[20] = molecular target: SARS-CoV-2 spike S2 peptide 1157-1171, biotinylated (SARS-CoV-2); assay: DELFIA on captured biotin-peptide; set-up: unit not given beside the values
[21] = molecular target: SARS-CoV-2 spike S2 peptide 1141-1155, biotinylated (SARS-CoV-2); assay: DELFIA on captured biotin-peptide; set-up: unit not given beside the values
[22] = molecular target: SARS-CoV-2 spike S2 peptide 1149-1163, biotinylated (SARS-CoV-2); assay: DELFIA on captured biotin-peptide; set-up: unit not given beside the values

Sotrovimab VH/VL-huIgG1-LS (antibody)
pseudovirus neutralization EC50, Vero E6 (sotrovimab VH/VL-huIgG1-LS + isotype) [1]: 1.2 µg/mL | pseudovirus neutralization EC50, Vero E6 (sotrovimab VH/VL-huIgG1-LS + isotype) [2]: 0.0079 µg/mL | pseudovirus neutralization EC50, Vero E6 (sotrovimab VH/VL-huIgG1-LS + isotype) [3]: 0.17 µg/mL | pseudovirus neutralization EC50, Vero E6 [4]: 0.851 µg/mL | pseudovirus neutralization Emax, Vero E6 (sotrovimab VH/VL-huIgG1-LS + isotype) (% neutralization) [5]: 71.9 | pseudovirus neutralization Emax, Vero E6 (sotrovimab VH/VL-huIgG1-LS + isotype) (% neutralization) [6]: 96.9 | pseudovirus neutralization Emax, Vero E6 (sotrovimab VH/VL-huIgG1-LS + isotype) (% neutralization) [7]: 93.4 | pseudovirus neutralization EC90, Vero E6 (sotrovimab VH/VL-huIgG1-LS + isotype) [8]: 9.6 µg/mL | pseudovirus neutralization EC90, Vero E6 (sotrovimab VH/VL-huIgG1-LS + isotype) [9]: 0.11 µg/mL | pseudovirus neutralization EC90, Vero E6 (sotrovimab VH/VL-huIgG1-LS + isotype) [10]: 1.5 µg/mL | pseudovirus neutralization EC80, Vero E6 (sotrovimab VH/VL-huIgG1-LS + isotype) [11]: 4.4 µg/mL | pseudovirus neutralization EC80, Vero E6 (sotrovimab VH/VL-huIgG1-LS + isotype) [12]: 0.042 µg/mL | pseudovirus neutralization EC80, Vero E6 (sotrovimab VH/VL-huIgG1-LS + isotype) [13]: 0.68 µg/mL

isotype control (palivizumab variable regions expressed as human IgG1 with LS mutation in the Fc region) (antibody)
AUC [14]: 2600 | AUC [15]: 19300 | AUC [16]: 3110 | AUC [17]: 8120 | AUC [18]: 1520 | AUC [19]: 4060 | AUC [20]: 3110 | AUC [21]: 13300 | AUC [22]: 20500
